In data set [1] the target is T1, AtNF-YA6;AtNF-YB2;AtNF-YC3 (Arabidopsis thaliana;Arabidopsis …, UniProt Q9LVJ7;Q9FGJ3;Q9ZVL3 170-237;24-116;55-148, ||). The data set is described as follows: EMSA; 12 mM Tris-HCl pH 8.0, 50 mM NaCl, 50 mM KCl, 5 mM MgCl2, 0.5 mM EDTA, 12% glycerol, 0.2 mg/mL BSA, 2.5 mM DTT, 100 ng poly(dA:dT), 20 nM Cy5 probe, 30 C 30 min; 6% PAGE in 0.25X TBE. As to conditions: protein: recombinant;recombinant;recombinant; tags: 6His;6His removed by thrombin;; copies: 1;1;1; label: Cy5 5'.

The target in data set [2] is AtNF-YA2;AtNF-YB2;AtNF-YC3 (Arabidopsis thaliana;Arabidopsis …, UniProt Q9M9X4;Q9FGJ3;Q9ZVL3 134-207;24-116;55-148, ||). Kind of data set: EMSA; efficiency similar to NF-YA6 trimer; 12 mM Tris-HCl pH 8.0, 50 mM NaCl, 50 mM KCl, 5 mM MgCl2, 0.5 mM EDTA, 12% glycerol, 0.2 mg/mL BSA, 2.5 mM DTT, 100 ng poly(dA:dT), 20 nM Cy5 probe, 30 C 30 min; 6% PAGE in 0.25X TBE. Conditions: protein: recombinant;recombinant;recombinant; tags: 6His;6His removed by thrombin;; copies: 1;1;1; label: Cy5 5'. In general terms: A gel shift assay detects complexes by their altered migration in electrophoresis.

The target of data set [3] is T1, AtNF-YA6;AtNF-YB2;AtNF-YC3. Kind of data set: competition EMSA; similar rates, WT A least preferred; 12 mM Tris-HCl pH 8.0, 50 mM NaCl, 50 mM KCl, 5 mM MgCl2, 0.5 mM EDTA, 12% glycerol, 0.2 mg/mL BSA, 2.5 mM DTT, 100 ng poly(dA:dT), 20 nM Cy5 probe, 30 C 30 min; 6% PAGE in 0.25X TBE. As to conditions: protein: recombinant;recombinant;recombinant; tags: 6His;6His removed by thrombin;; copies: 1;1;1.

In data set [4] the target is T1, AtNF-YA6;AtNF-YB2;AtNF-YC3. The data set is described as follows: competition EMSA; purines preferred at +2; 12 mM Tris-HCl pH 8.0, 50 mM NaCl, 50 mM KCl, 5 mM MgCl2, 0.5 mM EDTA, 12% glycerol, 0.2 mg/mL BSA, 2.5 mM DTT, 100 ng poly(dA:dT), 20 nM Cy5 probe, 30 C 30 min; 6% PAGE in 0.25X TBE. Conditions: protein: recombinant;recombinant;recombinant; tags: 6His;6His removed by thrombin;; copies: 1;1;1.

Data set [5] concerns the target T1, AtNF-YA6;AtNF-YB2;AtNF-YC3. Kind of data set: competition EMSA; 12 mM Tris-HCl pH 8.0, 50 mM NaCl, 50 mM KCl, 5 mM MgCl2, 0.5 mM EDTA, 12% glycerol, 0.2 mg/mL BSA, 2.5 mM DTT, 100 ng poly(dA:dT), 20 nM Cy5 probe, 30 C 30 min; 6% PAGE in 0.25X TBE. As to conditions: protein: recombinant;recombinant;recombinant; tags: 6His;6His removed by thrombin;; copies: 1;1;1.

For data set [6], the target named is T1, AtNF-YA6;AtNF-YB2;AtNF-YC3. Kind of data set: competition EMSA; better than WT; 12 mM Tris-HCl pH 8.0, 50 mM NaCl, 50 mM KCl, 5 mM MgCl2, 0.5 mM EDTA, 12% glycerol, 0.2 mg/mL BSA, 2.5 mM DTT, 100 ng poly(dA:dT), 20 nM Cy5 probe, 30 C 30 min; 6% PAGE in 0.25X TBE. Conditions: protein: recombinant;recombinant;recombinant; tags: 6His;6His removed by thrombin;; copies: 1;1;1.

Data set [7] concerns the target T1, AtNF-YA6;AtNF-YB2;AtNF-YC3. Kind of data set: competition EMSA; equal to WT; 12 mM Tris-HCl pH 8.0, 50 mM NaCl, 50 mM KCl, 5 mM MgCl2, 0.5 mM EDTA, 12% glycerol, 0.2 mg/mL BSA, 2.5 mM DTT, 100 ng poly(dA:dT), 20 nM Cy5 probe, 30 C 30 min; 6% PAGE in 0.25X TBE. As to conditions: protein: recombinant;recombinant;recombinant; tags: 6His;6His removed by thrombin;; copies: 1;1;1.

The target of data set [8] is T1, AtNF-YA6;AtNF-YB2;AtNF-YC3. The data set is described as follows: competition EMSA; preferred over WT; 12 mM Tris-HCl pH 8.0, 50 mM NaCl, 50 mM KCl, 5 mM MgCl2, 0.5 mM EDTA, 12% glycerol, 0.2 mg/mL BSA, 2.5 mM DTT, 100 ng poly(dA:dT), 20 nM Cy5 probe, 30 C 30 min; 6% PAGE in 0.25X TBE. Conditions: protein: recombinant;recombinant;recombinant; tags: 6His;6His removed by thrombin;; copies: 1;1;1.

In data set [9] the target is T1, AtNF-YA6;AtNF-YB2;AtNF-YC3. The data set is described as follows: competition EMSA; higher affinity; 12 mM Tris-HCl pH 8.0, 50 mM NaCl, 50 mM KCl, 5 mM MgCl2, 0.5 mM EDTA, 12% glycerol, 0.2 mg/mL BSA, 2.5 mM DTT, 100 ng poly(dA:dT), 20 nM Cy5 probe, 30 C 30 min; 6% PAGE in 0.25X TBE. As to conditions: protein: recombinant;recombinant;recombinant; tags: 6His;6His removed by thrombin;; copies: 1;1;1.

Data set [10] concerns the target T1, AtNF-YA6;AtNF-YB2;AtNF-YC3. Kind of data set: competition EMSA; highest affinity at -3; 12 mM Tris-HCl pH 8.0, 50 mM NaCl, 50 mM KCl, 5 mM MgCl2, 0.5 mM EDTA, 12% glycerol, 0.2 mg/mL BSA, 2.5 mM DTT, 100 ng poly(dA:dT), 20 nM Cy5 probe, 30 C 30 min; 6% PAGE in 0.25X TBE. As to conditions: protein: recombinant;recombinant;recombinant; tags: 6His;6His removed by thrombin;; copies: 1;1;1.

These results are taken from paper PMC6843132, “The Plant NF-Y DNA Matrix In Vitro and In Vivo”.

T1 sequence (Q9LVJ7 170-237, chain 1 of 3): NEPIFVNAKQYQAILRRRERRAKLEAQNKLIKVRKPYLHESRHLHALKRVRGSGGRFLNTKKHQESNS
T1 sequence (Q9FGJ3 24-116, chain 2 of 3): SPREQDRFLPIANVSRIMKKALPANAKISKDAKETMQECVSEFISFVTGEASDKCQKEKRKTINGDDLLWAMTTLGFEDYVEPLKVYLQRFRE
T1 sequence (Q9ZVL3 55-148, chain 3 of 3): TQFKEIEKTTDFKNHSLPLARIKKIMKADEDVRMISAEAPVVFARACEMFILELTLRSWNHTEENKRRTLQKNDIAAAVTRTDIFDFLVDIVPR
Sequence of AtNF-YA2;AtNF-YB2;AtNF-YC3 (Q9M9X4 134-207, chain 1 of 3): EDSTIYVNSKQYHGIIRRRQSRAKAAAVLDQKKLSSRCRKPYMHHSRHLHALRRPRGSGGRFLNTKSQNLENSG
Sequence of AtNF-YA2;AtNF-YB2;AtNF-YC3 (Q9FGJ3 24-116, chain 2 of 3): as the sequence (Q9FGJ3 24-116, chain 2 of 3) above
Sequence of AtNF-YA2;AtNF-YB2;AtNF-YC3 (Q9ZVL3 55-148, chain 3 of 3): as the sequence (Q9ZVL3 55-148, chain 3 of 3) above

B1: CAB2 (-65) CCAAT 31 bp probe (dsDNA)
DNA 1: CTTAAAATCCAATGAATGAACAGATAAAGAT
DNA 2: ATCTTTATCTGTTCATTCATTGGATTTTAAG
As to B1, the binding result in [1] and in data set [2] was “binds” in each case.

B2: CAB2 A15G (dsDNA)
DNA 1: CTTAAAATCCAATGAGTGAACAGATAAAGAT
DNA 2: ATCTTTATCTGTTCACTCATTGGATTTTAAG
With B2, in data set [3], the binding result is given as “binds”.

B3: CAB2 A14G (dsDNA)
DNA 1: CTTAAAATCCAATGGATGAACAGATAAAGAT
DNA 2: ATCTTTATCTGTTCATCCATTGGATTTTAAG
Regarding B3, in [4], the binding result was “binds”.

B4: CAB2 A15C (dsDNA)
DNA 1: CTTAAAATCCAATGACTGAACAGATAAAGAT
DNA 2: ATCTTTATCTGTTCAGTCATTGGATTTTAAG
In the case of B4, the binding result in data set [3] was “binds”.

B5: CAB2 A15T (dsDNA)
DNA 1: CTTAAAATCCAATGATTGAACAGATAAAGAT
DNA 2: ATCTTTATCTGTTCAATCATTGGATTTTAAG
Take B5: in data set [3], the binding result is “binds”.

B6: CAB2 WT competitor 31 bp (dsDNA)
DNA 1: CTTAAAATCCAATGAATGAACAGATAAAGAT
DNA 2: ATCTTTATCTGTTCATTCATTGGATTTTAAG
B6: the binding result in [5] is reported as “binds”.

B7: CAB2 A6G (dsDNA)
DNA 1: CTTAAAGTCCAATGAATGAACAGATAAAGAT
DNA 2: ATCTTTATCTGTTCATTCATTGGACTTTAAG
As to B7, the binding result in data set [6] is “binds”.

B8: CAB2 A6T (dsDNA)
DNA 1: CTTAAATTCCAATGAATGAACAGATAAAGAT
DNA 2: ATCTTTATCTGTTCATTCATTGGAATTTAAG
Regarding B8, in [7], the binding result is listed as “binds”.

B9: CAB2 T7A (dsDNA)
DNA 1: CTTAAAAACCAATGAATGAACAGATAAAGAT
DNA 2: ATCTTTATCTGTTCATTCATTGGTTTTTAAG
For the molecule B9, the binding result in data set [8] is reported as “binds”.

B10: CAB2 G13C (dsDNA)
DNA 1: CTTAAAATCCAATCAATGAACAGATAAAGAT
DNA 2: ATCTTTATCTGTTCATTGATTGGATTTTAAG
With B10, in data set [8], the binding result is reported as “binds”.

B11: CAB2 T7G (dsDNA)
DNA 1: CTTAAAAGCCAATGAATGAACAGATAAAGAT
DNA 2: ATCTTTATCTGTTCATTCATTGGCTTTTAAG
Turning to B11, the binding result in data set [8] is listed as “binds”.

B12: CAB2 T16A (dsDNA)
DNA 1: CTTAAAATCCAATGAAAGAACAGATAAAGAT
DNA 2: ATCTTTATCTGTTCTTTCATTGGATTTTAAG
As to B12, the binding result in data set [9] was “binds”.

B13: CAB2 A6C (dsDNA)
DNA 1: CTTAAACTCCAATGAATGAACAGATAAAGAT
DNA 2: ATCTTTATCTGTTCATTCATTGGAGTTTAAG
On to B13, for which the binding result in data set [6] is recorded as “binds”.

B14: CAB2 A5T (dsDNA)
DNA 1: CTTAATATCCAATGAATGAACAGATAAAGAT
DNA 2: ATCTTTATCTGTTCATTCATTGGATATTAAG
Take B14: the binding result in data set [10] was “binds”.
